Assays:
[1] = target: pUL77 (Human cytomegalovirus (cosmid pCM1075; strain not stated)) (UniProt P16726); test: pull-down; conditions: scale: binding efficiency
[2] = target: purified recombinant pUL77 (rpUL77) (human cytomegalovirus (HCMV)) (UniProt P16726); test: cross-linking
[3] = target: in vitro translated, radiolabeled pUL77 (wild type, from pcDNA-UL77) (human cytomegalovirus (HCMV)) (UniProt P16726); test: cross-linking; in vitro translated, radiolabeled protein in PBS, 0.01% glutaraldehyde, 8% SDS-PAGE, autoradiography

bio-1000 bp
binding signal [1]: 4.9

purified recombinant pUL77 (rpUL77) (from UniProt P16726 1-642) (natural protein)
stoichiometry N [2]: 2

bio-250 bp
binding signal [1]: 0.5

in vitro translated, radiolabeled pUL77 (wild type, from pcDNA-UL77) (from UniProt P16726 1-642) (natural protein)
stoichiometry N [3]: 2

bio-500 bp
binding signal [1]: 2.2

Source: article PMC3187746
